Test results reported in publication doi:10.1101/739813 (bioRxiv, 2019).
Where no end group is shown, it is not given here.

Experiments:
crystal structure = biological target: the molecule itself; test: crystal structure
[1] = biological target: pRab8a(GTP): Rab8a (Q67L, residues 1-181) phosphorylated at T72, GTP-bound (UniProt P61006); test: ITC
UniProt P61006, sequence (P61006 1-181 Q67L): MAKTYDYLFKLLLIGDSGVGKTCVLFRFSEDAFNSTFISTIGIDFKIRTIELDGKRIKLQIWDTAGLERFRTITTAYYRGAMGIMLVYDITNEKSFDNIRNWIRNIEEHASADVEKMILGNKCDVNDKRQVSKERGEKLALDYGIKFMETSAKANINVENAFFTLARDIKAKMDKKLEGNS

Kd [1]: 3.3 µM
Binder: His6-NRPRFTLQELRDVLQERNKLKSQLLVVQEELQCYKSG (peptide, UniProt Q969X0 129-165, looked up) [His6-RILPL2, phospho-Rab binding domain of RILPL2 (residues 129-165)]
binding result (crystal structure): binds
